In publication PMC5090066, “An affinity-directed protein missile system for targeted proteolysis” (Open Biology, 2016):

What was measured:
[1] = target: T1, GFP-VPS34 (endogenous VPS34 with a GFP tag knocked in at the N-terminus) (Aequorea victoria GFP (tag on human …, UniProt P42212 = GFP)); assay: pull-down; aGFP16 tethered to sepharose beads; cell extracts; pull-downs and flow-through extracts analysed; settings: one partner purified
T1 construct: GFP tag knocked in around the start codon of VPS34; donor construct DU52175; VPS34, class III phosphatidylinositol 3-kinase, human, expressed from its own locus; also called vacuolar protein sorting 34; source: endogenous, homozygous CRISPR/Cas9 knock-in HEK293 cells, in cell extract

[2] = target: T2, PAWS1-GFP (endogenous PAWS1/FAM83G with a GFP tag knocked in at the C-terminus) (Aequorea victoria GFP (tag on human …, UniProt P42212 = GFP)); assay: as above; settings: one partner purified
T2 construct: PAWS1 (FAM83G), human, expressed from its own locus; GFP tag knocked in around the stop codon of PAWS1; donor construct DU48585; also called protein associated with SMAD1; source: endogenous, homozygous CRISPR/Cas9 knock-in U2OS cells, in cell extract

binding result [1]: binds
binding result [2]: binds
B1: aGFP16, cameloid anti-GFP nanobody, tethered to sepharose beads (VHH)
VHH: QVQLVESGGRLVQAGDSLRLSCAASGRTFSTSAMAWFRQAPGREREFVAAITWTVGNTILGDSVKGRFTISRDRAKNTVDLQMDNLEPEDTAVYYCSARSRGYVLSVLRSVDSYDYWGQGTQVTVSG
notes: DU54238 is the cDNA in the pBABED/pRetroX vectors
